Data set [1] deals with the molecule itself. Briefly: cross-linking.
Data set [2] deals with the molecule itself. Description: SEC.

Numbering of substitutions follows the chain as printed. Numbers in names are those of the source.

We go through 5 proteins from paper PMC3679265 (Biochimica et biophysica acta, 2013).

B1: human galactose-1-phosphate uridylyltransferase p.F171S (enzyme, UniProt P07902 1-379, looked up)
chain: MSRSGTDPQQRQQASEADAAAATFRANDHQHIRYNPLQDEWVLVSAHRMKRPWQGQVEPQLLKTVPRHDPLNPLCPGAIRANGEVNPQYDSTFLFDNDFPALQPDAPSPGPSDHPLFQAKSARGVCKVMCFHPWSDVTLPLMSVPEIRAVVDAWASVTEELGAQYPWVQISENKGAMMGCSNPHPHCQVWASSFLPDIAQREERSQQAYKSQHGEPLLMEYSRQELLRKERLVLTSEHWLVLVPFWATWPYQTLLLPRRHVRRLPELTPAERDDLASIMKKLLTKYDNLFETSFPYSMGWHGAPTGSEAGANWNHWQLHAHYYPPLLRSATVRKFMVGYEMLAQAQRDLTPEQAAERLRALPEVHYHLGQKDRETATIA
For B1, the “stoichiometry N” value in data set [1] is 2.

B2: human galactose-1-phosphate uridylyltransferase p.L74P (enzyme, UniProt P07902 1-379, looked up)
chain: B1 chain with L74P, S171F
B2: in data set [2], the “stoichiometry N” value was 2.

B3: human galactose-1-phosphate uridylyltransferase p.R333G (enzyme, UniProt P07902 1-379, looked up)
chain: B1 chain with S171F, R333G
Take B3: the “stoichiometry N” value in data set [1] turned out to be 2.

B4: human galactose-1-phosphate uridylyltransferase p.F194L (enzyme, UniProt P07902 1-379, looked up)
chain: B1 chain with S171F, F194L
As to B4, the “stoichiometry N” value in data set [1] is 2.

B5: human galactose-1-phosphate uridylyltransferase p.D28Y (enzyme, UniProt P07902 1-379, looked up)
chain: B1 chain with D28Y, S171F
Take B5: the “stoichiometry N” value in data set [2] came to 2.
